According to the supplement of paper PMC12455559:
± gives the standard deviation of the averaged measurements.

Key:
[1] = melting temperature (DSF); higher = more thermostable
Procedure, shortened: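 After expression in E. coli C41(DE3), the candidate enzymes were bound to nickel beads and released with SUMO protease. Their melting temperature was found by differential scanning fluorimetry with Sypro Orange on a Bio-Rad CFX96. Each sealed PCR plate well held 45 μL enzyme (0 to 0.3 mg/mL) plus 5 μL 5X dye, and fluorescence was read for 250 cycles from 25 °C at 0.3 °C per cycle (ramp 0.3 °C/s).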

[2] = purified protein yield per well (BCA); higher = higher soluble expression
Procedure, shortened: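 The measured quantity is purified protein yield per well, determined with the Pierce Rapid Gold BCA kit. Anything below 25 ug (0.1 mg/mL) lies under the detection threshold. Enzymes were expressed in E. coli C41(DE3) in 2 mL autoinduction cultures with 100 µg/mL kanamycin at 37 °C for 2 h, then 18 °C for 40 h, and purified on an OT-2 robot using Ni-charged magnetic beads and SUMO protease release.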

[3] = PET hydrolysis, aromatic products released after 48 h (umol product/mg enzyme); higher = more PET depolymerization activity
Procedure, shortened: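 Candidate enzymes, made tagless by SUMO cleavage and purified on nickel beads, were added at 5 μg (50 μL) to 3.5 mg of either amorphous PET film or crystalline PET powder in 450 μL buffer. The sealed plates stood unshaken for 48 h at 40 or 60 °C. Activity on PET is the aromatic product found in the supernatant per mg enzyme, read at 260 and 280 nm against buffer blanks.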

[4] = substrate: cryPow, 40 °C, pH 4.5
[5] = substrate: cryPow, 40 °C, pH 5.5
[6] = substrate: cryPow, 40 °C, pH 6.5
[7] = substrate: cryPow, 40 °C, pH 7.5
[8] = substrate: cryPow, 40 °C, pH 8.5
[9] = substrate: aFilm, 40 °C, pH 5.5
[10] = substrate: aFilm, 40 °C, pH 6.5
[11] = substrate: aFilm, 40 °C, pH 7.5
[12] = substrate: aFilm, 40 °C, pH 8.5
[13] = substrate: aFilm, 60 °C, pH 5.5
[14] = substrate: aFilm, 60 °C, pH 6.5
[15] = substrate: aFilm, 60 °C, pH 7.5
[16] = substrate: aFilm, 60 °C, pH 8.5
[17] = substrate: cryPow, 60 °C, pH 5.5
[18] = substrate: cryPow, 60 °C, pH 6.5
[19] = substrate: cryPow, 60 °C, pH 7.5
[20] = substrate: cryPow, 60 °C, pH 8.5
[21] = substrate: cryPow, 60 °C, pH 4.5
[22] = substrate: aFilm, 40 °C, pH 4.5
[23] = substrate: aFilm, 60 °C, pH 4.5

Sequence | melting temperature [1] | purified protein yield per well [2] | PET hydrolysis [3, 4] | PET hydrolysis [3, 5] | PET hydrolysis [3, 6] | PET hydrolysis [3, 7] | PET hydrolysis [3, 8] | PET hydrolysis [3, 9] | PET hydrolysis [3, 10] | PET hydrolysis [3, 11] | PET hydrolysis [3, 12] | PET hydrolysis [3, 13] | PET hydrolysis [3, 14] | PET hydrolysis [3, 15] | PET hydrolysis [3, 16] | PET hydrolysis [3, 17] | PET hydrolysis [3, 18] | PET hydrolysis [3, 19] | PET hydrolysis [3, 20] | PET hydrolysis [3, 21] | PET hydrolysis [3, 22] | PET hydrolysis [3, 23]
MAQTSSCSLMGDVDGSGAIDIVDALLVAQAYVGLNPANYNDACADVDCSDSANIVDALLVAQLYVGLISSFPCEVTPEPTGVSTPTPGGAISIACGSSSAVGSFQADEYYSGGSTYNNSNTVDVSLITDNPPPAALFNNERYGEMSYTIPGFTAGGTYAVTLYFAETYLTSSGSRQFNVSINGTAVLSSFDIYAAAGGQNRAVARAFTTTADSGGQIVIQFTSVTENPKINGISIQAGTAPTPGPTATPGPTSENPYERGPDPSLESVAASRGTFATAELTLSPGNGFGGGFIYYPTDTSLGTWAAVAICPGYTAKFANEETWMGHWLASFGFVVIGIETNTTTDSVDARGTQLLAALDYLTQQSAVRDRVDPDRLMVMGHSAGGGGAFTAAVQRSSLKTVVGLAPASASNMGSLRMPVMIISGQYDDVITPSYINGIWTSLSPTIQRAWIELANNDHLSFTRSNSTEMRVLIPWMKIFLDNDTRYTQFLCPLADSSGISKYENSCPLVP [TEP011] | 64.6 C | 30.6 µg | < 3 | < 3 | < 3 | < 3 |  |  |  |  |  |  |  |  |  |  |  |  |  |  |  | 
QSSNPYQRGPAPTERSIEASRGPFAVAQTTVSRLSATGFGGGTIYYPTDTSQGRFGGVAISPGFTALQSSIAWLGPRIASQGFIVFTIDTITTLDQPAQRGDQLLAALDYLVQRSPAAVRDRLDPTRLAVMGHSMGGGGTLEAAKKRPSLKAAIPLTGWNLDTIWNDLRVPTLVVGAQLDLIAPILTFSLPFYNTIPASTEKVYLELAGASHFAPNLPDTNIAKYSIAWLKRWVDNDTRYTQFLCPGPRFELAISNYMSSCPM [DP056] | 56.2 C | 36 µg |  | < 3 | < 3 | 4 | 6 |  |  |  |  |  |  |  |  |  |  |  |  |  |  | 
AGNPYERGPSPTAASIAADRGPFATAQVTVPRGNGFGGGVIYYPTDTSQGTFGAIAIAPGFNTAWSYYAWQGPRLASFGFVVIGIETNTLNDYADARATQLLAALDYLVNSSPVRDRVDRDRLAVGGHSMGGGGALLAATQRPSLLTAVGQAPYVPNGNLSGIKSPTIIFAGQADGTVTPQYAQNAYNTIPADVERAYVEIANEGHGFPAGGGGGNSGAFARTMMVWLKLFIDKDTRYAPFLCPTLSNANGISKYMASCPLDPPGGGPTASPTASPTATPSSTPTGPPPATSALKGVASGRCLDVNGASQANGAQAQIWDCNGQNNQQWTTTSAGELRVYGNKCLDVNGGSTADGTSVIIWDCNGQNNQKWRLNSDGTITAVGANKCLDVSGAGTANGTKTQIWTCHGGTNQKWTRV [DP092] | 68.5 C | 197 µg |  | 7 ± 1.4 | 13.5 ± 3.5 | 15 | 18.5 ± 2.1 | < 3 | < 3 | < 3 | < 3 | < 3 | < 3 | < 3 | < 3 | < 3 | < 3 | < 3 | < 3 |  |  | 
ADLLSQGRPATASSTEKESTPASAAVDGDTGTRWSSTFGDPQWLQVDLGATATLSRIVLRWEAAYARTFRIQTSDDGTAWTTVHSTTTGAGGVQTLDVNGTGRYVRLHGTQRGTLYGYSLWEFQVYGSGDGTPPDGTIPDPTTASLEAAAGPLPTAAYTVPSPSGYGSGTVTYPTSGGAYPGVVLMPGYQGTQENLRWLAPRLASWGFVVLNVGTTTLLDDPASRGRQISAAGIQLLALGGTSGNPLSGKLDGTLGAVGHSMGGGGVMAALRDDPRFRAGVPTAPYYPNMNFSQVTDPTFFLTCQSDPVAHGNTYAVPWYTTMSRAEKLYVEVPGDHLCPMTGYGDKARQGKWIVSFLSLWLRADTRFGPFLCGPAREADKNNTALVTRWMDTCPF [TEP160] | 68.5 C | 31 µg | < 3 | < 3 | < 3 | < 3 |  |  |  |  |  |  |  |  |  |  |  |  |  |  |  | 
DEIGQAPTAGNITGNGSFTTTSESISSLVSGFGGGRVYYPTTAGKYPVVAISPGFTATWSSLSWIGPRLSSWGFVVVGIETNSIYDQPASRGSQLLAALNWAVNSSSSAVRARVDGSRRGVAGHSMGGGGTLEALAADTTGLVKAGVPIAPWNSDKTWNNVSEPVMIVGGQSDTVAPVASHSIPFYNTLAGPKGYVELTGASHFFPQSTNATLSRALVAWFKRWLNQDSRFTPYTCGFSGLAVSDFRSNAC [ESM090] | 68.5 C | 116 µg | < 3 | 27 | 46 | 65 |  |  |  |  |  |  |  |  |  | 12 | 35 | 51 |  | < 3 |  | 
ADNPYERGPDPTRTSVATERGPFANTSVSVPSGHGFNGGRIYYPTDTSQGTFGAIAISPGYTALFSVELAWMGPWLASHGFVVIGIETNSTNDFDTARGTQLLAALDYLTQQSPVRDRIDPSRLAVSGHSMGGGGALSAAMRRSSLKAVVGITPFSPSSNLASNQVPTMVISGQADTVVTPSYALDLYNSLPASTESVYLEVAGGDHGFMVGRSNPVLIRTMLPFLKMFVDNDTRYSQFLCPLMDNSGVVTYRSTCPLLPTPPTTPPPTGDPTSPPPSTDPTTPPPSGSTGQIVGTQSNRCIDVPNSSRNNGTRVQLYDCHGQANQTWTYNSTTKQLRVYGDMCLDAAGSGNGAAVQIYNCHGQTNQQWNLNSNGTISGVQSNRCLDVWSTNNGAQIQLYDCHGQTNQQFRIRS [ESM173] | 61.6 C | 199 µg | 3.5 ± 0.71 | 11.5 ± 0.71 | 20.5 ± 0.71 | 11 |  | < 3 | < 3 | < 3 |  | < 3 | < 3 | < 3 |  | < 3 | < 3 | < 3 |  | < 3 | < 3 | < 3
STRNQEPTLQSIEAARGPYEIATQSVPPAVNTGFGGGTIYYPATTGAGKFGAVALSPGYMEKEYSFSWLGTRLASQGFVVFIINTQNSEEFPSARTDELLASLNYLTQTSEVRDRVDPNRLAVMGHSMGGGAALEAAEKNQSLRAVISMTPWNIKTTYSDIKTPTLIIGAQYDNIAPVHDHAQPSYASLPNDLAKSYLELRNGNHFSPNMENTAIARSSTVWLKRFVDGDTRYNKFICPGPTVGDEFNIVQSNCPIL [DP079] | 60.4 C | 281 µg |  | < 3 | < 3 | < 3 | < 3 | < 3 | < 3 | < 3 | < 3 | < 3 | < 3 | < 3 | < 3 | < 3 | < 3 | < 3 | < 3 |  |  | 
ADNPYQRGPDPTRTSVTAVNGPFANTSVSVPTGQGFNGGRIYYPTDTSQGTFGAVAISPGYTALFSAELAWMGPWLASHGFVVIGIETNSTNDFDTARGTQLLAALDYLTQRSSVRDRVDPNRLAVSGHSMGGGGALSAAARRSSLKAVVGITPYSPSSNLANVRVPTMVVSGQADTVVTPSYALNLYNSLPSTTESVYLEVAGGDHGFMVGRSNPVLVRTMLPFLKMFVDNDTRYSQFLCPLMDNSGVVTYRSTCPLLPTPTTPPPTTGPTTPPPTTPPTTTPPPSGSTGQIVGTQSNRCIDVPNSSRNNGTRVQLYDCHGQANQTWTYDSSTKQLRVYGDMCLDASGSGNGAAVQIYSCHNQTNQQWNINSNGTISGVQSNRCLDAWSTNNGAQIQLYDCHGQTNQQFRIRA [TEP168] | 65.2 C | 213 µg | 4 | 9 | 9 ± 1.4 | 4.5 ± 0.71 |  | < 3 | < 3 | < 3 |  | < 3 | < 3 | < 3 |  | < 3 | < 3 | < 3 |  | < 3 | < 3 | < 3
ADNPYQRGPNPTRESVAASRGTFATAETSVGGGNGFAAAKIYYPTDTGQGKFGAIAVVPGYTATWAAEGAWMGHWLASFGFVVIGIDTLSRNDWDVARGTQLLAALDYLTQRSSVRDRVDATRLAVMGHSMGGGGAISAALRRPSLKTAIGNAPFSASQNLNNMQIPTALLAGQRDGTTTPSSISGYYNQIPAGVEKMYLELTGAGHGFPTSNNSVMTRKVIPWMKIFIDNDTRYHQFLCPLMDNTGISAYRSTCPLIPGDPTPPSDTYSLVGAASGKCADVEGVSQANGARLLLWTCNGQVNQRWTQTAAGELRVYDNPKCMDAGASAQGTRVTINACNGGNSQKWTVNANGTVTNAASGRCLDAGGTADNSPVVVNTCTGGSSQNWSKRS [TEP029] | 57.7 C | 282 µg | < 3 | < 3 | 14.5 ± 5 | 15.5 ± 0.71 |  | < 3 | < 3 | < 3 |  | < 3 | < 3 | < 3 |  | < 3 | < 3 | < 3 |  | < 3 | < 3 | < 3
DVNPFQRGPDPTAAGVAAARGPFATAQVTVPAGNGFGGGVVYYPTDTSQGTFGAIAIAPGYGTAWSYYAWQGPRLASFGFVVIGIETNTLNDYADARAAQLLAALDWLVTSSPVRDRVDRNRLAVGGHSMGGGGALLAAIQRPSLMTAIGMAPYVPGGDLSGIRIPTVLFAGQTDGTVTPSYALSAYTTIPGSVERAYVEIANEGHGFPAGGGGGNSGAFARTEMIWMKLFIDKDTRYAPFLCPSLSNMNGISRYQASCPLDPPGGTTPTPSATPTSSPTSTPTSTPSATSALRGAGSSRCLDVPGASQTNGTQLQIWDCNGQANQRWTSTSAGELRVYGGKCLDVNGAGTADGTSVIIWDCNGQNNQKWRLNSDGSITAVGANKCLDVSGAGTANGTKVQIWTCNGQANQRWTRT [ESM026] | 65.8 C | 305 µg | < 3 | 4.5 ± 0.71 | 8.5 ± 0.71 | 9.5 ± 0.71 |  | < 3 | < 3 | < 3 |  | < 3 | < 3 | < 3 |  | < 3 | < 3 | < 3 |  | < 3 | < 3 | < 3
NPYERGPDPTTASIEASRGSFATSTVTVSRLAVSGFGGGTIYYPTTTTAGTFGAISIAPGFTATQSSMAWLGPRLASQGFVVFTIDTITTSDQPDSRGRQLLASLDYLTQQSSVRSRIDSSRLGVVGHSMGGGGTLEAARSRPSLQAAVPLTGWNLTKNWSTLRVPTLVVGAQSDTIAPVASHSIPFYTSLPSTLDRAYLELRGASHFAPNTSNTTIAKYTLSWLKRFIDNDTRYEQFLCPIPSSSLSISDYRGNCPHNG [ESM167] | 55.3 C | 254 µg | 2 ± 2.8 | 12.5 ± 2.1 | 21 ± 4.2 | 35.5 ± 0.71 |  | 4 | 6.5 ± 0.71 | 7.5 ± 0.71 |  | < 3 | 2 ± 2.8 | 2.5 ± 3.5 |  | 10.5 ± 2.1 | 20 ± 1.4 | 26 ± 1.4 |  | < 3 | < 3 | < 3
